Experimental data taken from patent publication US20140212436A1.

Assays:
[1] = molecular target: recombinant human FcγRIIb protein (human) (UniProt P31994); experiment: Biacore
[2] = molecular target: FcγRIIaR (human) (UniProt P12318); experiment: Biacore
Chain of FcγRIIaR (human) (P12318 34-217 H167R limits assumed): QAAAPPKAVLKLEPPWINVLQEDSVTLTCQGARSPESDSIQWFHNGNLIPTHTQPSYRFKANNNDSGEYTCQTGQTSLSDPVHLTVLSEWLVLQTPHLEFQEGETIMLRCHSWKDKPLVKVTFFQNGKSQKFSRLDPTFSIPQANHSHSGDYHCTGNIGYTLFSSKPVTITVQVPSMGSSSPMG

Chain of recombinant human FcγRIIb protein (human) (P31994 46-217 limits assumed): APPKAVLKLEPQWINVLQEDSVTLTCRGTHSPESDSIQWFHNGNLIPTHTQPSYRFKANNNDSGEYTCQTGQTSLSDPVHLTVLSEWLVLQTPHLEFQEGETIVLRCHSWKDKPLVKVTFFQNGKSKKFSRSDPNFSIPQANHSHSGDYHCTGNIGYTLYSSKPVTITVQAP

Substance L234W/L328Y/I332E (antibody) has a Fold [1] of 6.32 and a Kd [1] of 0.232 µM.
Substance L234W/S239D/L328Y (antibody) has a Fold [1] of 32.8 and a Kd [1] of 0.0448 µM.
L234W/S239E/S267E (antibody) showed a Fold [2] of 98.5, a Kd [2] of 0.00872 µM and a Fold [1] of 42.3. The Kd [1] was 0.0347 µM.
With L234Y (antibody) the Fold [2] was 0.0511, the Kd [2] was 16.8 µM and the Fold [1] was 0.0237. For the same substance, the Kd [1] was 61.9 µM.
In the case of L235D/S239D (antibody), the Fold [1] is reported as 4.11 and the Kd [1] is reported as 0.357 µM.
L235E (antibody) showed a Fold [2] of 0.333, a Kd [2] of 2.58 µM and a Fold [1] of 0.55. For the same substance, the Kd [1] was 2.67 µM.
With L235F/H268D/L328Y (antibody) the Fold [1] was 3.97 and the Kd [1] was 0.37 µM.
L235F/L328Y/I332E (antibody) gave a Fold [1] of 3.31 and a Kd [1] of 0.443 µM.
In the case of L235F/S239D/L328Y (antibody), the Fold [1] is reported as 6.82 and the Kd [1] is reported as 0.215 µM.
In the case of L235H (antibody), the Fold [2] is reported as 0.756, the Kd [2] is reported as 1.14 µM and the Fold [1] is reported as 0.734. The Kd [1] was 2 µM.
In the case of L235N (antibody), the Fold [2] is reported as 0.0356, the Kd [2] is reported as 24.1 µM and the Fold [1] is reported as 0.147. It also gave a Kd [1] of 10 µM.
L235P (antibody) showed a Fold [2] of 0.122, a Kd [2] of 7.01 µM and a Fold [1] of 0.00585. The Kd [1] was 251 µM.
Work on L235Q (antibody) yielded a Fold [2] of 2.04 and a Kd [2] of 0.42 µM.
Substance L235R (antibody) has a Fold [2] of 1.02, a Kd [2] of 0.838 µM and a Fold [1] of 5.58. The Kd [1] was 0.263 µM.
L235S (antibody) gave a Fold [2] of 0.00859, a Kd [2] of 100 µM and a Fold [1] of 0.0147. The Kd [1] was 100 µM.
L235S/S267E (antibody) gave a Kd [1] of 37.8 µM.
L235T/S267E (antibody) gave a Fold [2] of 3.06, a Kd [2] of 0.281 µM and a Fold [1] of 2.37. It also gave a Kd [1] of 0.619 µM.
Substance L235Y/G236D/S267E (antibody) has a Fold [2] of 9.67, a Kd [2] of 0.0888 µM and a Fold [1] of 25. It also gave a Kd [1] of 0.0587 µM.
For L235Y/S267D (antibody), the Fold [1] was 15.9 and the Kd [1] was 0.0922 µM.
In the case of L328Y/I332E (antibody), the Fold [1] is reported as 2.08 and the Kd [1] is reported as 0.705 µM.
With P329E (antibody) the Fold [2] was 0.0859, the Kd [2] was 10 µM and the Fold [1] was 0.147. It also gave a Kd [1] of 10 µM.
P331S (antibody) gave a Fold [1] of 0.0372 and a Kd [1] of 39.4 µM.
Substance S239D/A327D/L328Y (antibody) has a Fold [1] of 11.9 and a Kd [1] of 0.123 µM.
Work on S239D/H268D (antibody) yielded a Fold [1] of 14.4 and a Kd [1] of 0.102 µM.
S239D/H268D/L328F (antibody) was tested, and the Fold [1] was 8.79 and the Kd [1] was 0.167 µM.
In the case of S239D/H268D/L328F/I332E (antibody), the Fold [1] is reported as 53.2 and the Kd [1] is reported as 0.0276 µM.
Substance S239D/H268D/L328W (antibody) has a Fold [1] of 51.1 and a Kd [1] of 0.0287 µM.
In the case of S239D/H268D/L328W/I332E (antibody), the Fold [1] is reported as 27.8 and the Kd [1] is reported as 0.0527 µM.
S239D/H268D/L328Y (antibody) was tested, and the Fold [1] was 24.4 and the Kd [1] was 0.0601 µM.
S239D/H268D/L328Y/I332E (antibody) was tested, and the Fold [1] was 54.1 and the Kd [1] was 0.0271 µM.
S239D/H268E/L328Y (antibody) gave a Fold [1] of 21.7 and a Kd [1] of 0.0677 µM.
For S239D/K326D/L328Y (antibody), the Fold [1] was 13 and the Kd [1] was 0.113 µM.
S239D/L328F/I332E (antibody) was tested, and the Fold [1] was 8.34 and the Kd [1] was 0.176 µM.
For S239D/L328Y (antibody), the Fold [1] was 5.56 and the Kd [1] was 0.264 µM.
S239D/L328Y/I332E (antibody) gave a Fold [1] of 7.41 and a Kd [1] of 0.198 µM.
In the case of S239D/S267A/L328Y (antibody), the Fold [1] is reported as 19.8 and the Kd [1] is reported as 0.0741 µM.
S239D/S267D (antibody) showed a Fold [1] of 22.3 and a Kd [1] of 0.0659 µM.
Substance S239D/S267E/I332E (antibody) has a Fold [1] of 124 and a Kd [1] of 0.0118 µM.
Work on S239N (antibody) yielded a Fold [2] of 0.867, a Kd [2] of 0.99 µM and a Fold [1] of 1.45. For the same substance, the Kd [1] was 1.01 µM.
S239Q (antibody) was tested, and the Fold [2] was 0.853, the Kd [2] was 1.01 µM and the Fold [1] was 0.729. It also gave a Kd [1] of 2.01 µM.
S267A/H268D/L328Y (antibody) gave a Fold [1] of 10.7 and a Kd [1] of 0.137 µM.
S267A/L328Y/I332E (antibody) was tested, and the Fold [1] was 13.5 and the Kd [1] was 0.109 µM.
S267D/A327D (antibody) gave a Fold [1] of 6.89 and a Kd [1] of 0.213 µM.
With S267D/A327E (antibody) the Fold [1] was 12.1 and the Kd [1] was 0.121 µM.
In the case of S267D/H268D (antibody), the Fold [1] is reported as 14.2 and the Kd [1] is reported as 0.103 µM.
With S267D/H268E (antibody) the Fold [1] was 17.8 and the Kd [1] was 0.0826 µM.
Work on S267E/H268D (antibody) yielded a Fold [1] of 33.3 and a Kd [1] of 0.044 µM.
Substance S267E/L328H (antibody) has a Fold [2] of 4.64, a Kd [2] of 0.185 µM and a Fold [1] of 5.17. The Kd [1] was 0.284 µM.
S267E/L328I (antibody) was tested, and the Fold [2] was 74, the Kd [2] was 0.0116 µM and the Fold [1] was 53.4. The Kd [1] was 0.0275 µM.
Work on S267E/L328Q (antibody) yielded a Fold [1] of 12.1 and a Kd [1] of 0.121 µM.
